In one assay the target is C3b (Homo sapiens) (UniProt P01024). Conditions: cited from earlier work.
The target of assay [1] is T1, C3b, biotinylated at the free cysteine of the hydrolysed thioester (human, UniProt P01024 23-667; P01024 749-1663, biotin (EZ-Link Maleimide-PEG2-Biotin) on the free cysteine that is generated after hydrolysis of the reactive thioester).
T1 construct: complement C3 beta chain, human; C3b alpha' chain, human; Coupled to a streptavidin chip through the biotin; also called C3b coated chip; source: generated from C3 (purified from human plasma) with FB and FD, biotinylated, purified by SEC
As to the kind of experiment: SPR; biotinylated C3b on a SensEye P-Strep chip (IBIS-MX96); P^N12/456 injected 4.9 × 10^-3 to 40 μM in 14 2-fold steps; 20 mM HEPES pH 7.4, 0.005% Tween-20, 150 mM NaCl; 25°C; equilibrium end-point fit. Conditions: both partners purified. (Surface plasmon resonance follows binding to a sensor surface in real time, without labels.)

Assay [2] concerns the target T1, C3b, biotinylated at the free cysteine …. As to the kind of experiment: SPR; biotinylated C3b on a SensEye P-Strep chip; P^N12/456 injected 1.2 × 10^-3 to 10 μM; low ionic strength, 20 mM HEPES pH 7.4, 0.005% Tween-20, 50 mM NaCl; 25°C; equilibrium end-point fit. The following applies: both partners purified.
Assay [3] addresses T2, C3 pro-convertase C3bB^dgf‡ generated on a C3b coated chip (human, UniProt P01024 23-667; P01024 749-1663; P00751 26-764, S699A | D279G | N285D, biotin (EZ-Link Maleimide-PEG2-Biotin) on the free cysteine that is generated after hydrolysis of the reactive thioester).
T2 construct: complement C3 beta chain, human; C3b alpha' chain, human; source: formed on the SPR chip: 100 nM FB^dgf‡ injected for 5 min over biotinylated C3b, 5 mM MgCl2; copies: + +
As to the kind of experiment: SPR; C3bB^dgf‡ or C3bBb^dgf‡ generated on a C3b coated chip before each injection; P^N12/456 injected (2.4 × 10^-4 to 2 μM on C3bB, 1.2 × 10^-4 to 1 μM on C3bBb); 20 mM HEPES pH 7.4, 0.005% Tween-20, 150 mM NaCl, 5 mM MgCl2; 25°C; equilibrium end-point fit. Conditions: both partners purified.

For another assay, the target named is T3, C3 convertase C3bBb^dgf‡ (human, UniProt P01024 23-667; P01024 749-1663; P00751 260-764, S699A | D279G | N285D, biotin (EZ-Link Maleimide-PEG2-Biotin) on the free cysteine that is generated after hydrolysis of the reactive thioester).
T3 construct: complement C3 beta chain, human; C3b alpha' chain, human; In the convertase stability assay (functional rows) the same complex was formed in solution from C3b that was not biotinylated; source: formed on the SPR chip: FB^dgf‡ (100 nM, 5 min) then FD (100 nM, 5 min) over biotinylated C3b, 5 mM MgCl2; copies: + +
The assay is described as above. Conditions: both partners purified.

In assay [4] the target is T1, C3b, biotinylated at the free cysteine …. As to the kind of experiment: SPR; formation of C3bB and C3bBb on the chip: 100 nM FB^dgf‡ injected for 5 min over biotinylated C3b, then 100 nM FD for 5 min; buffer with 5 mM MgCl2; 25°C. The following applies: both partners purified.
Assay [5] has as its target T4, P^N1′/456, biotinylated monomerized properdin (complex of P^N1′ with P^456) (human, UniProt P27918 28-134; P27918 256-469, biotinylated with EZ-Link Maleimide-PEG2-Biotin as described for C3b (site not stated)).
T4 construct: N-terminal Gly-Ser cloning scar from the BamHI site; properdin, human, P^N1′, res; 28-134; includes an additional Cys-Pro (res. 133-134) at the C-terminus of TSR1; C-terminal extension of three alanines from the NotI site; 256-469 (TSR4, TSR5, TSR6); The maleimide-biotin is surmised to sit on a free cysteine at the C-terminus of P^N1′ (Cys132/Cys133); source: HEK293-EBNA, co-expressed, purified …
As to the kind of experiment: SPR; biotinylated P^N1′/456 on a SensEye P-Strep chip; C3/C3b-CTC injected 2.4 × 10^-2 to 200 μM (200 μM point left out as an outlier); 20 mM HEPES pH 7.4, 0.005% Tween-20, 150 mM NaCl; 25°C; equilibrium end-point fit. The following applies: both partners purified.

T1 sequence (P01024 23-667, one chain of several): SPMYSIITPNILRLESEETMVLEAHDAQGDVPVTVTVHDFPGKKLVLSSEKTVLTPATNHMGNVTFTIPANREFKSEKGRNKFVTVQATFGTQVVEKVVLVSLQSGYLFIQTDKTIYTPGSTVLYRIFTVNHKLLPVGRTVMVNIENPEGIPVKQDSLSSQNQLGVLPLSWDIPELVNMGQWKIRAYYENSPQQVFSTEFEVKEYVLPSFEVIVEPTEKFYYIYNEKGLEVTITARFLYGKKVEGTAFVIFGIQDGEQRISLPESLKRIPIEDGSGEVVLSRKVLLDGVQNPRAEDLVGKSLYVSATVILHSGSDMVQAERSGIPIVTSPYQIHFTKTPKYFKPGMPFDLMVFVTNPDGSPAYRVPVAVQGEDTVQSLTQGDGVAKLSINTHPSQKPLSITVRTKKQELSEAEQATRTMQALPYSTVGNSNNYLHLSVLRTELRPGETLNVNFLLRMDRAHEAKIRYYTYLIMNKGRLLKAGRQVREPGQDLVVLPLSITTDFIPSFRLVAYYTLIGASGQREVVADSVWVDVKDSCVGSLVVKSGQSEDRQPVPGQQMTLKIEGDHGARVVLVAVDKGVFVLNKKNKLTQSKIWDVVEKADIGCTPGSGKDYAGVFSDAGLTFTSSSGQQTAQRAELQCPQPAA
T3 sequence (P01024 23-667, stated change not applied, one chain of several): as the sequence (P01024 23-667, one chain of several) above
C3b (Homo sapiens), sequence (P01024 23-667): as the sequence (P01024 23-667, one chain of several) above
T2 sequence (P01024 23-667, stated change not applied, one chain of several): as the sequence (P01024 23-667, one chain of several) above

As a reminder, the Kd is a measure of binding affinity in units of concentration. With “Properdin single vertices (from UniProt P27918)”, the Kd with C3b (Homo sapiens) was 7.8 µM.

B1: P^N12/456, monomerized properdin (non-covalent complex of P^N12 with P^456) (complex, human)
chain 1: GSDPVLCFTQYEESSGKCKGLLGGGVSVEDCCLNTAFAYQKRSGGLCQPCRSPRWSLWSTWAPCSVTCSEGSQLRYRRCVGWNGQCSGKVAPGTLEWQLQACEDQQCCPEMGGWSGWGPWEPCSVTCSKGTRTRRRACNHPAPKCGGHCPGQAQESEACDTQQVCP
chain 2: GSVAGGWGPWGPVSPCPVTCGLGQTMEQRTCNHPVPQHGGPFCAGDATRTHICNTAVPCPVDGEWDSWGEWSPCIRRNMKSISCQEIPGQQSRGRTCRGRKFDGHRCAGQQQDIRHCYSIQHCPLKGSWSEWSTWGLCMPPCGPNPTRARQRLCTPLLPKYPPTVSMVEGQGEKNVTFWGRPLPRCEELQGQKLVVEEKRPCLHVPACKDPEEEELAAA
modifications: C-mannosylated Trp-ladder tryptophans; O-fucosylation of Thr92 and Thr151 (observed in the structure) | C-mannosylated Trp-ladder tryptophans; O-fucosylation of Thr272; N-glycosylation of Asn428
notes: N-terminal Gly-Ser cloning scar from the BamHI site; properdin, human, P^N12, res; 28-191 (N-terminal STB domain, TSR1, TSR2); stop codon before the NotI site, no alanine extension; 256-469 (TSR4, TSR5, TSR6); C-terminal extension of three alanines from the NotI site; TSR3 (res. 192-255) is absent; source: HEK293-EBNA, co-expressed (1:1 DNA ratio), purified from supernatant (Ni-Sepharose Excel, …)
For B1, the Kd in assay [1] came to 6.8 ± 0.2 µM; in assay [2], 0.69 ± 0.04 µM; in assay [3], 0.098 ± 0.002 µM; in the assay with C3 convertase C3bBb^dgf‡, 0.034 ± 0.001 µM.

B2: catalytically inactive (S699A) double-gain-of-function (D279G, N285D) factor B mutant (enzyme, human, UniProt P00751 26-764, looked up)
chain: TPWSLARPQGSCSLEGVEIKGGSFRLLQEGQALEYVCPSGFYPYPVQTRTCRSTGSWSTLKTQDQKTVRKAECRAIHCPRPHDFENGEYWPRSPYYNVSDEISFHCYDGYTLRGSANRTCQVNGRWSGQTAICDNGAGYCSNPGIPIGTRKVGSQYRLEDSVTYHCSRGLTLRGSQRRTCQEGGSWSGTEPSCQDSFMYDTPQEVAEAFLSSLTETIEGVDAEDGHGPGEQQKRKIVLDPSGSMNIYLVLDGSGSIGASDFTGAKKCLVNLIEKVASYGVKPRYGLVTYATYPKIWVKVSEADSSNADWVTKQLNEINYEDHKLKSGTNTKKALQAVYSMMSWPDDVPPEGWNRTRHVIILMTDGLHNMGGDPITVIDEIRDLLYIGKDRKNPREDYLDVYVFGVGPLVNQVNINALASKKDNEQHVFKVKDMENLEDVFYQMIDESQSLSLCGMVWEHRKGTDYHKQPWQAKISVIRPSKGHESCMGAVVSEYFVLTAAHCFTVDDKEHSIKVSVGGEKRDLEIEVVLFHPNYNINGKKEAGIPEFYDYDVALIKLKNKLKYGQTIRPICLPCTEGTTRALRLPPTTTCQQQKEELLPAQDIKALFVSEEEKKLTRKEVYIKNGDKKGSCERDAQYAPGYDKVKDISEVVTPRFLCTGGVSPYADPNTCRGDAGGPLIVHKRSRFIQVGVISWGVVDVCKNQKRQKQVPAHARDFHINLFQVLPWLKEKLQDEDLGFL
notes: complement factor B, human; also called FB^dgf‡
With B2, in assay [4], the binding result was “binds”.

B3: C3/C3b-CTC domain (C-terminal C345c domain of C3/C3b) (domain or fragment, human)
chain: GSNCFIQKSDDKVTLEERLDKACEPGVDYVYKTRLVKVQLSNDFDEYIMAIEQTIKSGSDEVQVGQQRTFISPIKCREALKLEEKKHYLMWGLSSDFWGEKPNLSYIIGKDTWVEHWPEEDECQDEENQKQCQDLGAFTESMVVFGCPN
notes: N-terminal Gly-Ser cloning scar from the BamHI site; complement C3, human, CTC (C345c) domain, res; 1517-1663; stop codon before the NotI site, no alanine extension; also called C3b/C3 CTC domain
In assay [5], B3 came in with a Kd of 18.6 ± 1.6 µM.

The values are drawn from paper PMC6736995, “Insights Into Enhanced Complement Activation by Structures of Properdin and Its Complex With the C-Terminal Domain of C3b” (Frontiers in Immunology, 2019).
